According to article PMC6060171:

Biological target: AcrIIA6 (anti-CRISPR protein of Streptococcus thermophilus virulent phage D1811, product of gene D1811_026) (Streptococcus thermophilus phage D1811)
Test: SEC; gel filtration profile of purified AcrIIA6; size exclusion chromatography in 20 mM Hepes pH 7.5, 150 mM NaCl

AcrIIA6 (anti-CRISPR protein of Streptococcus thermophilus virulent phage D1811, product of gene D1811_026) (natural protein)
stoichiometry N: 2
